Data on two molecules can be found in paper PMC11402785, “Structural basis for activity switching in polymerases determining the fate of let-7 pre-miRNAs” (Nature Structural & Molecular Biology, 2024).

Changes are numbered by the printed parent chain.

In data set [1] the target is TUT7 (ZCCHC6);LIN28A (Homo sapiens;Homo sapiens, UniProt Q5VYS8;Q9H9Z2 1-1495;1-209, |). Kind of data set: cryo-EM; Zn2+; ternary conformation I, 3.81 A; EMSA: 20 mM HEPES pH 7.8, 100 mM NaCl, 2 mM CaCl2, 50 uM ZnCl2, 5% glycerol, 5 mM DTT, 0.5 mM UTP, RNase inhibitor, on ice 30 min; 0.1 uM RNA, 0.2 uM TUT, 0.3 uM LIN28A; native gel in 1x TBE at 4 C. The settings on record: protein: recombinant;recombinant; tags: N-term His6-GST (TEV cleavable), C-term twin-Strep;N-term His6-GST fusion; copies: 1;1; hairpin, 1 nt 3' overhang. (In general: A gel shift assay detects complexes by their altered migration in electrophoresis.)
Sequence of TUT7 (ZCCHC6);LIN28A (Q5VYS8 whole entry, the tested form may be a part, one chain of several): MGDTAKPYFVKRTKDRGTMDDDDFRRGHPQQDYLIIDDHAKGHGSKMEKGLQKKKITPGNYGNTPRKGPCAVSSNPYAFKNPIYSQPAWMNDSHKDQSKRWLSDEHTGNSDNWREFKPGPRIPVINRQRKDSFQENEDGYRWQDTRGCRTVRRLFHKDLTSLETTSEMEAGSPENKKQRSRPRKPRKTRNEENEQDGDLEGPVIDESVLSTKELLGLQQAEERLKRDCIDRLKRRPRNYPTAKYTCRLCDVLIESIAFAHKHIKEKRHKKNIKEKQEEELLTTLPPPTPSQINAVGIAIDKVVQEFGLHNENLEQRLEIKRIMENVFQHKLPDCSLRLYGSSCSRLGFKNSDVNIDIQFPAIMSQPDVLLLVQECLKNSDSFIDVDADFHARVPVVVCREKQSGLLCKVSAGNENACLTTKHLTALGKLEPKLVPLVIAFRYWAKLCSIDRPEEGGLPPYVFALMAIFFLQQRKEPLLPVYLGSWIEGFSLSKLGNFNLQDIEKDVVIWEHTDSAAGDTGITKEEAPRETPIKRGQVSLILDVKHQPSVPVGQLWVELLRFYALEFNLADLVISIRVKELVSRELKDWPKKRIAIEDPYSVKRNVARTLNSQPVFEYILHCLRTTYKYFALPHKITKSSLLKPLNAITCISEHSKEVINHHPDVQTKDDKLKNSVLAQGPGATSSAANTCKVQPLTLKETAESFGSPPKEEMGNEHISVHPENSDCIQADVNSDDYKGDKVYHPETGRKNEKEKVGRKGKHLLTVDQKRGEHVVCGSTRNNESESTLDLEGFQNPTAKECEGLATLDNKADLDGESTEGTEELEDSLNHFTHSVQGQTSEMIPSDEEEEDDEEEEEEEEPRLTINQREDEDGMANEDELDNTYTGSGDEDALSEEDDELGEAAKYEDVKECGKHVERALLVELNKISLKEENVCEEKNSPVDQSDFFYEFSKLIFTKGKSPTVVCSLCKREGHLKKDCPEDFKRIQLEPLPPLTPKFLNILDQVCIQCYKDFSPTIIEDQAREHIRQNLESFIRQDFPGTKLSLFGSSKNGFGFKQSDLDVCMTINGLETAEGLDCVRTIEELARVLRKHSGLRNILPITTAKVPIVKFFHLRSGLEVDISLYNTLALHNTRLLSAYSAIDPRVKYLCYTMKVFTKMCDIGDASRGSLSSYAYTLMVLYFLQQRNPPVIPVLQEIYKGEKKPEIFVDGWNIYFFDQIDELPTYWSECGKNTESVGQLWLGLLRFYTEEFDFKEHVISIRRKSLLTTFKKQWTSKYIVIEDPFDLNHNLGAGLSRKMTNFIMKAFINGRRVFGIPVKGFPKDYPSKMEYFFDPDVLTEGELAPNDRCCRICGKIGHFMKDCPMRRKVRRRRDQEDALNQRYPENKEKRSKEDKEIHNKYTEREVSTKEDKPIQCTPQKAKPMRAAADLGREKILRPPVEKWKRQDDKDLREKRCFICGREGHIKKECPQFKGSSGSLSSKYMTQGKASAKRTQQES

Data set [2] has as its target T1, TUT4 (ZCCHC11);LIN28A (Homo sapiens;Homo sapiens, UniProt Q5TAX3;Q9H9Z2 254-1315;1-209, |).
T1 sequence 1: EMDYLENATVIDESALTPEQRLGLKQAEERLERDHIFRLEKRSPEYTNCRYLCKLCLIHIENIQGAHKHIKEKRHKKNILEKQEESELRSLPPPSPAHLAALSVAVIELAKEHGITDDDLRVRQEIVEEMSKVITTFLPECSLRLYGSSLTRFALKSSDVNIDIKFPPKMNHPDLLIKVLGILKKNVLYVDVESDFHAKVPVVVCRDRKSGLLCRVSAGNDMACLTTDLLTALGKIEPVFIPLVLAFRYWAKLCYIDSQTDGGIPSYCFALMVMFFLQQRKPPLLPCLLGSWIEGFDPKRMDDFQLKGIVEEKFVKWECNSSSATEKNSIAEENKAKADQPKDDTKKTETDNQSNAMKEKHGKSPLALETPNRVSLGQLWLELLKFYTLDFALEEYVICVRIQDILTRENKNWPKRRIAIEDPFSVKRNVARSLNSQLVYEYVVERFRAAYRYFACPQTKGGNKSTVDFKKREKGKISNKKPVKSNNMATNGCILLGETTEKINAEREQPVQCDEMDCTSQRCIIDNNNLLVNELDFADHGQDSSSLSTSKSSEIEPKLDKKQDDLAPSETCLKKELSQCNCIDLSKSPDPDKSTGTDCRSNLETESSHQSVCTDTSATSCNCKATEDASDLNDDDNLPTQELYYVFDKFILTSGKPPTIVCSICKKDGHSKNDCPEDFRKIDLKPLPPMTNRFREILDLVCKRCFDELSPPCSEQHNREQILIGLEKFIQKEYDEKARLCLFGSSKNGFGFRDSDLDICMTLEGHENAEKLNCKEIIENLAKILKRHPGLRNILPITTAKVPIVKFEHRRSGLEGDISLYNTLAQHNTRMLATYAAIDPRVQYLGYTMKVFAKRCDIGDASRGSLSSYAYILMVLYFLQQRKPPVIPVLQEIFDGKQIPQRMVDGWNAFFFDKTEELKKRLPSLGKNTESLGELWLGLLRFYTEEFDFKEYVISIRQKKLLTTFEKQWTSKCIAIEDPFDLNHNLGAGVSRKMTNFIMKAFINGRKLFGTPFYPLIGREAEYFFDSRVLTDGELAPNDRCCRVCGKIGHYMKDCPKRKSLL
T1 sequence 2: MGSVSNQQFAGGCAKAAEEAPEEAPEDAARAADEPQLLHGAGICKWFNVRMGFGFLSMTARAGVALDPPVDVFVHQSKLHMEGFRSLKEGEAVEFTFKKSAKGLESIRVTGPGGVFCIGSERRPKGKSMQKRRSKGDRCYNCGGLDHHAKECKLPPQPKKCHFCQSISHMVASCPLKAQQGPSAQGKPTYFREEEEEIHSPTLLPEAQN
Kind of data set: cryo-EM; Zn2+; ternary capture state, 3.68 A; EMSA: 20 mM HEPES pH 7.8, 100 mM NaCl, 2 mM CaCl2, 50 uM ZnCl2, 5% glycerol, 5 mM DTT, 0.5 mM UTP, RNase inhibitor, on ice 30 min; 0.1 uM RNA, 0.2 uM TUT, 0.3 uM LIN28A; native gel in 1x TBE at 4 C. The following applies: protein: recombinant;recombinant; tags: N-term His6-GST (TEV cleavable), C-term twin-Strep;N-term His6-GST fusion; copies: 1;1; hairpin, 1 nt 3' overhang.

For data set [3], the target named is T1, TUT4 (ZCCHC11);LIN28A. Nature of the data set: EMSA; 0.5 mM UTP, Ca2+, Zn2+; higher-order assemblies, concentration dependent; EMSA: 20 mM HEPES pH 7.8, 100 mM NaCl, 2 mM CaCl2, 50 uM ZnCl2, 5% glycerol, 5 mM DTT, 0.5 mM UTP, RNase inhibitor, on ice 30 min; 0.1 uM RNA, 0.2 uM TUT, 0.3 uM LIN28A; native gel in 1x TBE at 4 C. The settings on record: protein: recombinant;recombinant; tags: N-term His6-GST (TEV cleavable), C-term twin-Strep;N-term His6-GST fusion; copies: 1;1; label: 3' CY dye; hairpin, 1 nt 3' overhang.

Data set [4] addresses T2, TUT4 K919/K920 mutant (ZK1);LIN28A (Homo sapiens;Homo sapiens, UniProt Q5TAX3;Q9H9Z2 254-1315;1-209, K919A;K920A|).
T2 sequence 1: T1 sequence 1 with K666A, K667A
T2 sequence 2: T1 sequence 2
Nature of the data set: EMSA; 0.5 mM UTP, Ca2+, Zn2+; higher-order assemblies seen; EMSA: 20 mM HEPES pH 7.8, 100 mM NaCl, 2 mM CaCl2, 50 uM ZnCl2, 5% glycerol, 5 mM DTT, 0.5 mM UTP, RNase inhibitor, on ice 30 min; 0.1 uM RNA, 0.2 uM TUT, 0.3 uM LIN28A; native gel in 1x TBE at 4 C. The settings on record: protein: recombinant;recombinant; tags: N-term His6-GST (TEV cleavable), C-term twin-Strep;N-term His6-GST fusion; copies: 1;1; label: 3' CY dye; hairpin, 1 nt 3' overhang.

B1: pre-let-7g (structured_RNA)
RNA: UGAGGUAGUAGUUUGUACAGUUUGAGGGUCUAUGAUACCACCCGGUACAGGAGAUAACUGUACAGGCCACUGCCUUGC
In the case of B1, the binding result in data set [1] and in data set [2] was “binds” in each case.

B2: pre-let-7g_3'CY (structured_RNA)
RNA: B1 RNA
With B2, the binding result in data set [3] and in data set [4] was “binds” in each case.
